Data on seven molecules can be found in patent publication US20190307836A1 (Bicycle, published 2019).

Starred links: 1 amine or outer side, 2 acyl side, 3 side chain; linkers in the order of their positions; H or OH if unused. Positions of bridges follow the written chain, without caps; N, C: chain ends. Non-standard residues stand in square brackets, D forms with d. Chains are numbered I, II in the order given. No end group written: not given here. *: point of attachment. TATA = O=C(CC[*:1])N1CN(C(=O)CC[*:2])CN(C(=O)CC[*:3])C1; Dap(PYA) = diaminopropionic acid bearing 4-pentynoyl; 1Nal = N[C@@H](Cc1cccc2ccccc12)C(=O)O; Hyp = O=C(O)[C@@H]1C[C@@H](O)CN1; hArg = N=C(N)NCCCC[C@H](N)C(=O)O; tBuAla = CC(C)(C)C[C@H](N)C(=O)O; Nle = CCCC[C@H](N)C(=O)O; Pent4ynoyl = C#CCCC(=O)*

Assay [1] concerns the target T1, human EphA2 protein (human, UniProt P29317 25-534, limits assumed, biotinylated with EZ-Link Sulfo-NHS-LC-Biotin).
T1 construct: Construct not described
As to the kind of experiment: SPR (Biacore T200), biotinylated human EphA2 on streptavidin chip. As to the method:
(§1) Streptavidin was immobilized on the chip using standard amine-coupling chemistry at 25° C. with HBS-N (10 mM HEPES, 0.15 M NaCl, pH 7.4) as the running buffer. Briefly, the carboxymethyl dextran surface was activated with a 7 min injection of a 1:1 ratio of 0.4 M 1-ethyl-3-(3-dimethylaminopropyl) carbodiimide hydrochloride (EDC)/0.1 M N-hydroxy succinimide (NHS) at a flow rate of 10 μl/min. […] Data were corrected for DMSO excluded volume effects. All data were double-referenced for blank injections and reference surface using standard processing procedures and data processing and kinetic fitting were performed using Scrubber software, version 2.0c (BioLogic Software). Data were fitted using simple 1:1 binding model allowing for mass transport effects where appropriate.
(In general: Surface plasmon resonance follows binding to a sensor surface in real time, without labels.)

Assay [2] addresses CD137 expressed on cells (CHO cells expressing CD137); Jurkat cells of the Promega CD137 luciferase reporter … (UniProt Q07011 24-255, limits assumed). As to the kind of experiment: cell-based or functional assay.
Assay [3] has as its target T2, Recombinant human CD137 (R&D systems) (human, UniProt Q07011 24-186, biotinylated with EZ-Link Sulfo-NHS-LC-LC-Biotin).
T2 construct: Bought protein; also called human CD137 protein; TNFRSF9
Briefly: SPR (Biacore), biotinylated human CD137 on streptavidin chip. The method, then:
The protein was desalted to remove uncoupled biotin using spin columns into PBS.
For analysis of peptide binding, a Biacore T200 or a Biacore 3000 instrument was used with a XanTec CMD500D chip. Streptavidin was immobilized on the chip using standard amine-coupling chemistry at 25° C. with HBS-N (10 mM HEPES, 0.15 M NaCl, pH 7.4) as the running buffer. Briefly, the carboxymethyl dextran surface was activated with a 7 min injection of a 1:1 ratio of 0.4 M 1-ethyl-3-(3-dimethylaminopropyl) carbodiimide hydrochloride (EDC)/0.1 M N-hydroxy succinimide (NHS) at a flow rate of 10 μl/min. For capture of streptavidin, the protein was diluted to 0.2 mg/ml in 10 mM sodium acetate (pH 4.5) and captured by injecting 120 μl of onto the activated chip surface. Residual activated groups were blocked with a 7 min injection of 1 M ethanolamine (pH 8.5) and biotinylated CD137 captured to a level of 270-1500 RU. Buffer was changed to PBS/0.05% Tween 20 and a dilution series of the peptides was prepared in this buffer with a final DMSO concentration of 0.5%. The top peptide concentration was 500 nM with 6 further 2-fold or 3-fold dilutions. The SPR analysis was run at 25° C. at a flow rate of 90 μl/min with 60 seconds association and 900 seconds dissociation. After each cycle a regeneration step (10 μl of 10 mM glycine pH 2) was employed. Data were corrected for DMSO excluded volume effects as needed. All data were double-referenced for blank injections and reference surface using standard processing procedures and data processing and kinetic fitting were performed using Scrubber software, version 2.0c (BioLogic Software). Data were fitted using simple 1:1 binding model allowing for mass transport effects where appropriate.

Assay [4] addresses CD137 on human PBMC (anti-CD3 stimulated) (human, UniProt Q07011 24-255). As to the kind of experiment: cell-based or functional assay.
In assay [5] the target is CD137 expressed on cells (CHO cells expressing CD137; Jurkat cells of the Promega CD137 luciferase reporter assay) (UniProt Q07011). As to the kind of experiment: cell-based or functional assay.
Chain of CD137 expressed on cells (CHO cells expressing CD137; Jurkat cells of the Promega CD137 luciferase reporter assay) (Q07011 24-255 limits assumed): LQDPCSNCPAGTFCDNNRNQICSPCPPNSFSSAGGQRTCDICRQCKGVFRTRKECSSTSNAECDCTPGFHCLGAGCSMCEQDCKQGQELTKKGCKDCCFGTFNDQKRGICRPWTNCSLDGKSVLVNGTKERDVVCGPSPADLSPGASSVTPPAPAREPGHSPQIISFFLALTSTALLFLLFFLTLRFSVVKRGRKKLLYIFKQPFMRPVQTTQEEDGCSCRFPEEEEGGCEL
For assay [6], the target named is T3, Human Nectin-4 (residues Gly32-Ser349; NCBI RefSeq: NP_112178.2) with C-terminal FLAG tag (human, UniProt Q96NY8 32-349, randomly biotinylated with EZ-Link Sulfo-NHS-LC-LC-Biotin).
T3 construct: range 32-349; also called human Nectin-4 protein; not shown: C-terminal FLAG tag
T3 sequence (looked up): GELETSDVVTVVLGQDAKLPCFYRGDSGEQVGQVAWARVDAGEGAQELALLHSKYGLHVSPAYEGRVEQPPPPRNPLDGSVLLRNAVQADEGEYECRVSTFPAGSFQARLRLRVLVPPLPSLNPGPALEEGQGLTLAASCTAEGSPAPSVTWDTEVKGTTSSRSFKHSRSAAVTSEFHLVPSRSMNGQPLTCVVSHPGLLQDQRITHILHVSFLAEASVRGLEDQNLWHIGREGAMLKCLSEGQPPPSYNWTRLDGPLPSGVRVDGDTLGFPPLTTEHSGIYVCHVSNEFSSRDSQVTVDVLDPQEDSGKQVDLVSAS
Briefly: SPR (Biacore 3000), biotinylated human Nectin-4 on streptavidin chip. The method, then:
as §1, with “[…] Buffer was changed to PBS/0.05% Tween 20 and a dilution series of” for “Briefly,”, “peptides” for “carboxymethyl dextran surface”, “prepared in this buffer” for “activated”, “final DMSO concentration” for “7 min injection”, “0.5%.” for “a 1:1 ratio of 0.4 M 1-ethyl-3-(3-dimethylaminopropyl) carbodiimide hydrochloride (EDC)/0.1 M N-hydroxy succinimide (NHS) at a flow rate of 10 μl/min.”

Chain of CD137 expressed on cells (CHO cells expressing CD137); Jurkat cells of the Promega CD137 luciferase reporter … (Q07011 24-255 limits assumed): as the sequence (Q07011 24-255 limits assumed) above
Chain of CD137 on human PBMC (anti-CD3 stimulated) (Q07011 24-255): as the sequence (Q07011 24-255 limits assumed) above
T1 sequence (P29317 25-534 limits assumed): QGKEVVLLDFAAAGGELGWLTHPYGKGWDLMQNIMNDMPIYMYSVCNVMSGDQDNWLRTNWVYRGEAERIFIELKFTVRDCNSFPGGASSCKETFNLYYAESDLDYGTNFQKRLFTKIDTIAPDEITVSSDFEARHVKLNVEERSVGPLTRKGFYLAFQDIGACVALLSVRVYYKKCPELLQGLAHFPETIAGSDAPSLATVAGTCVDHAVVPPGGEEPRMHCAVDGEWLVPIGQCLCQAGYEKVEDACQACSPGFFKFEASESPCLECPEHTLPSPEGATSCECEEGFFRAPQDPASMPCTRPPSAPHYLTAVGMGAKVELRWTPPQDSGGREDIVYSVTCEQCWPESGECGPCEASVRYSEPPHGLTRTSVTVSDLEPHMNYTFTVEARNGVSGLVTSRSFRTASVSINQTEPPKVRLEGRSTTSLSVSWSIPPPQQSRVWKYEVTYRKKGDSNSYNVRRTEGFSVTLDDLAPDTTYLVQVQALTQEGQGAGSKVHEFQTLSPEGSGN

B1: heterotandem bicyclic peptide complex BCY9758 (peptide)
peptide 1: AXDCXLVNPLCLHPDWXC
peptide 2: ACIEEGQYCFADPYXC
modifications: BCY7732: N-terminal acetyl; Nle12; C-terminal Dap (diaminopropionic acid) bearing the linker; Ci, Cii, Ciii on TATA scaffold; BCY6099: N-terminal [B-Ala]-[Sar10]- (linker on N-terminus); HArg in the A-[HArg]-D extension; HyP1, dD10, HArg12; Ci, Cii, Ciii on TATA scaffold
Turning to B1, in assay [1], binding was characterised by a dissociation constant (Kd) of 1.5 nM. In assay [2], the “EC50 (nM), CD137 reporter assay, co-culture with SC-OV-3 (EphA2)” value came out at 1.2 nM and the “Fold Induction over Background, CD137 reporter assay, co-culture with SC-OV-3 (EphA2)” value stood at 7 fold. Also, the Kd (as a rule, the equilibrium constant for the complex coming apart) in assay [3] is 189 nM.

B2: heterotandem bicyclic peptide complex BCY10572 (peptide)
peptide 1: CP[1Nal][dD]CM[hArg]DWSTP[Hyp]WC
peptide 2: Ac-C[tBuAla]PE[dK](Pent4ynoyl)PYCFADPY[Nle]CA
modifications: linker I:1-I:5-I:15, II:1-II:8-II:15 via TATA; not fully specified (C-terminus, bridges); also: chains joined by PEG5 linker on chain 1 N-terminus, triazole to D-Lys(PYA)
Consider B2, for which, in assay [4], the “EC50 (nM), IFN-γ secretion, human PBMC co-culture with 4T1-D02(Nectin4+)” value amounted to 0.25 nM and the “max IFN-γ (pg/ml), human PBMC co-culture with 4T1-D02(Nectin4+)” value was determined as 17900 pg/mL. Further, the Kd in assay [3] was found to be 5 nM.

B3: heterotandem bicyclic peptide complex BCY10573 (peptide)
peptide 1: CP[1Nal][dD]CM[hArg]DWSTP[Hyp]WC
peptide 2: Ac-C[tBuAla]PE[dA]PYCFADPY[Nle]C-{Dap(PYA)}
modifications: linker I:1-I:5-I:15, II:1-II:8-II:15 via TATA; not fully specified (C-terminus); also: linker to a chain's N/C-terminus via PEG5
Regarding B3, the Kd in assay [3] was found to be 3.39 nM.

B4: heterotandem bicyclic peptide complex BCY10576 (peptide)
peptide 1: A[hArg]DC[Hyp]LVNPLCLHP[dD]W[hArg]C
peptide 2: Ac-C[tBuAla]PE[dA]PYCFADPY[Nle]C-{Dap(PYA)}
modifications: linker I:4-I:11-I:18, II:1-II:8-II:15 via TATA; not fully specified (C-terminus); also: chains joined by PEG5 linker on chain 1 N-terminus, triazole to Dap(PYA)
In assay [5], B4 had an EC50 (nM), CD137 reporter assay, co-culture with PC3 (EphA2) of 0.51 nM and a Fold Induction over Background, CD137 reporter assay, co-culture with PC3 (EphA2) of 38 fold.

B5: heterotandem bicyclic peptide complex BCY7985 (peptide)
peptide 1: AXDCXLVNPLCLHPDWXC
peptide 2: ACIEEGQYCFADPYXC
modifications: BCY7732: N-terminal acetyl; Nle12; C-terminal Dap (diaminopropionic acid) bearing the linker; Ci, Cii, Ciii on TATA scaffold; BCY6169: N-terminal [PYA]-[B-Ala]-[Sar10]- (linker on PYA); HArg in the A-[HArg]-D extension; HyP1, dD10, HArg12; Ci, Cii, Ciii on TATA scaffold
notes: also called EphA2-CD137 heterotandem BCY7985
Molecule B5 had a Kd in assay [1] of 2 nM. Also, in assay [2], the “EC50 (nM), CD137 reporter assay, co-culture with SC-OV-3 (EphA2)” value was determined as 4 nM and the “Fold Induction over Background, CD137 reporter assay, co-culture with SC-OV-3 (EphA2)” value was 15 fold. Moreover, the Kd in assay [3] stood at 143 nM.

B6: heterotandem bicyclic peptide complex BCY9351 (peptide)
peptide 1: CPXDCMXDWSTPXWC
peptide 2: ACIEEGQYCFADPYXC
modifications: BCY8045: N-terminal acetyl; D-Ala8, Nle12; C-terminal Dap (diaminopropionic acid) bearing the linker; Ci, Cii, Ciii on TATA scaffold; BCY8846: N-terminal [PYA]-[B-Ala]-[Sar10]- (linker on PYA); 1Nal2, dD3, HArg5, HyP11; Ci, Cii, Ciii on TATA scaffold
In turn, B6 gave a Fold Induction over Background, CD137 reporter assay, co-culture with H1376 (Nectin4) in assay [5] below 2 fold. In addition, the Kd stood at 2.47 nM in assay [6] and 3640 nM in assay [3].

B7: heterotandem bicyclic peptide complex BCY10571 (peptide)
peptide 1: CP[1Nal][dD]CM[hArg]DWSTP[Hyp]WC
peptide 2: Ac-C[tBuAla]PK(Pent4ynoyl)[dA]PYCFADPY[Nle]CA
modifications: linker I:1-I:5-I:15, II:1-II:8-II:15 via TATA; not fully specified (C-terminus, bridges); also: chains joined by PEG5 linker on chain 1 N-terminus, triazole to K(PYA)
For B7, in assay [4], the “EC50 (nM), IFN-γ secretion, human PBMC co-culture with 4T1-D02(Nectin4+)” value came to 0.44 nM and the “max IFN-γ (pg/ml), human PBMC co-culture with 4T1-D02(Nectin4+)” value was 18300 pg/mL. In assay [3], the Kd worked out at 12 nM.
